Data: the supplement of paper PMC9170038

System: MS2 coat protein
Test: apparent KD of MS2 coat protein; designed switch direction (-1 OFF switch, 1 ON switch): -1; higher = weaker reporter binding
Summary of the method: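 Designed RNA switches with common flanks were transcribed on Illumina chips by stalled E. coli RNA polymerase and titrated with SNAP-549-labelled MS2 coat protein, from 0.7 or 1.5 nM doubling to 3 µM, in Tris-HCl pH 7.5 buffer with KCl, MgCl2, BSA, DTT, tRNA and Tween-20. Steps lasted 0.8–1.5 h (lowest) to 10–20 min (highest). Titrations ran without input, with 200 uM small-molecule ligand, or with an oligonucleotide input. Normalised cluster fluorescence was curve-fitted, and apparent KD is the per-design median over clusters.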

[1] = Eterna round: R95, input ligand: microRNA oligo, concentration not stated
[2] = input ligand: microRNA oligo, concentration not stated
[3] = Eterna round: R95, input ligand: FMN 200 uM
[4] = Eterna round: R95, input ligand: none

Sequence | apparent KD of MS2 coat protein [1] | apparent KD of MS2 coat protein (input ligand: FMN 200 uM) | apparent KD of MS2 coat protein (input ligand: none) | other results
AUUAUGUAAGGAUAUCUUACAUGUGACUUCGGUCACUGUUCAGAGAAGGUACAUGAGGAUCACCCAUGUAGAAC [Ex4-3: 46] (puzzle: Exclusion 4) | 18 nM | – | – | –
AUACCACGAGGAUAUCGUCUAUAAUACAUGAGGAUCACCCAUGUUAUAUAUGUAAUGUUUCGAGAAGGCGUGUUUU [JR_E5_Sub082] (puzzle: Exclusion 5) | 14.7 nM | – | – | –
CGUCGACAUGUAGGAUAUCUGCACGUUUAGUGCAGAGAAGGACAUGAGGAUCACCCAUGUAGAUCACGACGAAUUAAUUUAAUU [ENG1/6-C2] (Eterna round: R96, puzzle: Exclusion NG 1) | – | 24 nM | 1540 nM | apparent KD of MS2 coat protein [2]: 205 nM
CCACGACAUGAGGAUCACCCAUGUCAGGAUAUCCCUCAUUGUAUGAAAAUACAAUGAGGGAGAAGGGACGUGAC [SS1 Omei 2] (puzzle: Exclusion 1) | 27.1 nM | – | – | –
GAUAGGGCAGGAUAUCGAGAUCCGCACAUGAGGAUCACCCAUGUUCGGUCGAAAGACCGACGAGAAGGGCCGUAUC [Omei Ex5 E6] (Eterna round: R97, puzzle: Exclusion 5) | – | 698 nM | 536 nM | –
AGAUGGCGAGGAUAUACAUGAGGAUCACCCAUGUGAGAUAAAUAAGUGAGGAAGAAAAGUAGAAGGCGCUGUCA [Mat - Exclusion 3 - Mod of Salish D14] (puzzle: Exclusion 3) | 74.3 nM | – | – | –
GUGGAGUAAGGAUAUACAUGAGGAUCACCCAUGUAAGGGAAGGUGAUGGGAGUAGAUAGUAGAAGGUACGAGGA [JR_Exclu3_Sub067] (puzzle: Exclusion 3) | 97.2 nM | – | – | apparent KD of MS2 coat protein [3]: 58.3 nM; apparent KD of MS2 coat protein [4]: 100 nM
UCUGGAGCAGGAUAUAUAUGACGUGCUUCGGCACGAAGGUCACAUGAGGAUCACCCAUGUAGAAGGGCUCCAGA [E2/9-D2] (Eterna round: R97, puzzle: Exclusion 2) | – | 344 nM | 43.6 nM | –
GGUACUAACAGCUGACUGUUAGUACUGUAGGUUUGUGUUACAUGAGGAUCACCCAUGUCCUCAUAAGCUCGUCUUGU [JL-sv3-2.23 mat747 mod] (puzzle: Sensor v3, turn-off variant 2) | 252 nM | – | – | apparent KD of MS2 coat protein [3]: 382 nM; apparent KD of MS2 coat protein [4]: 445 nM
GGAACGACAGGAUAUACAUGAGGAUCACCCAUGUAAAGAAGAGUAAAAUGUGAAAGCGGUAGAAGGGUCAAGAA [AK-MS2ROC-r4-exclusion3-6] (Eterna round: R97, puzzle: Exclusion 3) | – | 42.3 nM | 43.9 nM | –
CUCGUGCAGCAAAGCUGUACGAGUACAUGAGGAUCACCCAUGUAGGAUAUGGUACGCUUUGCGUGCUAGAAGGACGUGUGUAUG [Mat - Exclusion NG 3 - Mod of JL - D90] (Eterna round: R96, puzzle: Exclusion NG 3) | – | 75.4 nM | 39.6 nM | apparent KD of MS2 coat protein [2]: 26.9 nM
AAGUGACAUGAGGAUCACCCAUGUCAGGAUAUGCGCCGCUUACGCCUAAGUGUAGGGAGCAGAAGGGACAUAGA [EX1 B.2] (Eterna round: R97, puzzle: Exclusion 1) | – | 30.5 nM | 25.7 nM | –
AGUUGACGAGAAGGAUAUCCGAACCUUUAAAGAGGAGAAGGUCUAUCAACAUGAGGAUCACCCAUGUACAUCGCUCGGGUGUCC [Arenis] (Eterna round: R96, puzzle: Exclusion NG 1) | – | – | – | apparent KD of MS2 coat protein [2]: 54.7 nM
ACUUUUAGUGGUCAAACUCACAUGAGGAUCACCCAUGUUUACAGGCUUAGGUGCUUGUCUUAUACUAAGGUUUACCG [Eternabot (L1) Solution 44] (Eterna round: R97, puzzle: Sensor, turn-off variant 1) | – | 96.9 nM | 122 nM | –
AUCAGCUCGUCAGGAUAUGAACAUGAGGAUCACCCAUGUAAGAUCAAGCUGCUUCGGCAGCAAGUUCAGAAGGGACGAGCUGAU [ENG2/10-B3] (Eterna round: R96, puzzle: Exclusion NG 2) | – | 169 nM | 112 nM | apparent KD of MS2 coat protein [2]: 93.3 nM
